Reference: paper PMC10699557, “A recombinant approach for stapled peptide discovery yields inhibitors of the RAD51 recombinase†” (Chemical Science, 2023)
Bridge positions count the residues as written; N and C are the ends. Ends that are not written are not given here. DVT = divinyltriazine staple linking the two cysteines

Molecular target: HumRadA22
Assay: fluorescence polarisation; competition: displacement of a fluorescently-labelled BRC4 repeat from HumRadA22; KD calculated from IC50; single titrations with three technical replicates at each point; mock (linear) samples with 500 uM TCEP
Settings: both partners purified

Binder: VNSSAFSGFCTASGKKLNVSCEALQKAVKLFSDIENIS (linker 10-21 via DVT (inferred); also: His8 tag in name not shown in chain) [GB1-SP7-His8, stapled with DVT]
- Kd: 149 nM
